Test results as given in the DeepSol protein solubility set.

Test: soluble on expression in E. coli; label from the status in PepcDB or PDB records
In the case of “MCFWPVWNGKHCPHSTGMPATLPGHRKPTFSWPVSISVMKMPDTHTMVATVSRRILPGKPRQCFSLAVLILPLLEHGGYAITELTVTRRNTCGYSFVSGCPTVFSSRDLVGSGEEVRQARDTFLYINTDPTQGWIHYEPAAFSAGAQNKHLPMASLTGSGKHPAAARLNPVSRGPQFITVSLIIALLGTAWYGWQYYERWQTEKAAQAAVARQATEERITPPWPGLPETDAFIRGCADIWTSLPLSAAGWRYSLAECSTDGGSGNLRASYTNTAGATVTDFIRRISDMTDSRPFIVMPEGKTGGIGLPVTFRLSENAVTVDALPETAVLQERLTSLAQSMQLKLDWQEVNNSVTDENGQIIQPPWKEYDLQIQTTLPAHHLAERLKEPSVRFISVTRQLENGRFHYQFTGKYYARLEHHHHHH”, the “soluble on expression in E. coli” value is reported as “not soluble”. With “MRVAFFGTPLWAVPVLDALRKRHQVVLVVSQPDKPQGRGLRPAPSPVARYAEAEGLPLLRPARLREEAFLEALRQAAPEVAVVAAYGKLIPKEALDIPPHGFLNLHPSLLPKYRGAAPVQRALLAGERETGVSIMRLDEGLDTGPLYAVWRTPILPDEDAVALGNRLRDKGVELLLEVLERLPELTPRPQEGEASYAPPLSKEEGRLDFGESAEALYRRHRAVQPWPGSYFFHRGQRVKALRLRPEPGEGEPGVVARVGPEGVVVGTASGLLLLLEVQPEGRRAMPAADWARGYGVAPGTRLGQV” the “soluble on expression in E. coli” value was “soluble”. With “MAHHHHHHMAKVKMNPKLSSFTANAYEKKRQVGMYSKYIVDANPSGKDPSSSQTNKGNEYEEEDIVEKLRKREQSKQGGDYFMNAYKYTQPSAIIDYSSGEEQEYSQLLKKPKCPQCGVKNCVCGFMRSGGRRAR” the “soluble on expression in E. coli” value was “soluble”. With “MIGRNRYAMLTVDTEALPKRAVQDHIKRLMWGEHDGGCAGIREMCAIGNECGVKQVFFVDMCGAYACLDQTLDVVRWLDQDGQDVQLHAHPEYLPEQFWKEHGFKYRPRFLNQYGIEKATFTIKYFGKLISDLTGKPLRAFRAGSFRWNADTLRALQEAGVSLSFNNSMNARLKGQCTYSEPTNHSYLWSNGVIEVPVTERKFFPLFGKEWWGRLQFPVGDWLGSPPWRVLRPYTVGADPSFLVVLLHSWSLLYWDKDGYAVYRDDKRIEDYRKLVRRLARDYDIITTADFLDLYACGKIKTTHTADLSLAEFKAVKKLEHHHHHH” the “soluble on expression in E. coli” value was “not soluble”. With “MKQPKVSVIVTCYNYATYLEGCLASILNQTYQDFELVIINDGSTDNTDEVISRFLDNDKVRYINQKNTGQAIATNNGIAAAAGELIAFLDADDLWEPTKLEKQVRLFNRDSIGVVYSRIRFMDAEGCTLDMQLEGKYYTPRSGRVTDALLFENFIPYSSTVVRKECFDKFGMFNPEYKNGLDWDLWLRISREYEFDFVDEYLLIYRIGHPGQLTSNVERSVRCADLIFDRFLEENPGIVPDSVVRKAMAYSYCRRGNQFRKIDRKRSNGFFLNALAKNPAEIGAYVGLVKNFLNMLEHHHHHH” the “soluble on expression in E. coli” value was “not soluble”. With “MAHHHHHHMRPKKSAFKLAQRGERHLLHGNSEVSNFYGISESGFSNSRPPPYLLRFDKCNDIIAYTNEVDSECLKQIKNLAMLDIIKGHVTILPDVHLGKGIIIGSVFLTKDFIIPNGVGVDIGCGVLCVKINKLKKKNLREHIINNIYKKIKRNVPLSFDSHEKEVFDAKKVLDGLVAKYASRNMAHIMTPRHLKQMGTLGGGNHFIEIAYDASDGGEEALSGNQSGETHQNDAPHSYTSEQNHSPESDIYILIHSGSRNIGKRTAEFYDELASQESKVKRNDLAYLDLKKEQGQNYLKDMQLCLEYAKCNRIYMMKIIERIIYEEVNCTLDWQSVINIHHNFCNQELVTYVHSGEVKREYMYVTRKGATSSKKNQLGVIPGNMKVGSYIVRGKGNKLSYSSCSHGCGRVLSRTHAKKIINQTDFVNIMRGVRCDTNARIRDEAPQAYKNLGQVLRNQDSLVHVVRRLLPLINVKGE” the “soluble on expression in E. coli” value was “not soluble”. For “MGSDKIHHHHHHMVFFMLIIDVNHGALTLAEEYLNLGYEVDVWDIYQKIKKSEDFKVKYQKLKEKFGNKLNLFFEQPNFEKYDRVIAPIHCPIDVDFIPFTDAVSKILKEKFGNIHKKIINVTGVKGKTTTTSLINHILKDKYSTYLHNSNFGSIAPPTILKVLNSLDIDKYDFFIFETSLGLIKCKYGAITNVLENYKIAGGRKDALTAKFSSLKNAELSFINKRDINRYDLNINHKCLNVVDVDRAKILDKYPLKFKYFDEIFEFSKNIFGLHFVENSLFAIEICKNLVDMEEIRYRLKTFTIKNRMEIKEINKKILVKNINPGLDVKAISYAIKDFLEVFGGDIYIGGDFGIVCEEIDVKKLSEVLKRFNCRYIFVGEIGKELLNYLNGGYIKSYDENKIKRDSLVILREKIK”, the “soluble on expression in E. coli” value was “not soluble”. For “MGSDKIHHHHHHMDKNPLVYEYSIGKRKPYDYDYGNRQGNQNAGCPFCDVRHLVNIFEKDGDKIWLKNKYPTLQDTDQTILIESSDHQGDISTYTREDNQELMKFALKCFQKMYNSGRYKSVLWYKNFGPKSDGSLTHPHMQIVGLYHKDGYHDIGPDNFKGFEVGKSGSVEMNLSAYPVQGYQEVNIITHDNTNLGTWADLIQKGTQYVRSVLSHGVDSYNLFFYPINDGQGTCCKIIPRFYASPYFVGYKISQVDDSDTLKWEAERLKGFVNGGILH”, the “soluble on expression in E. coli” value was “not soluble”. In the case of “MGSDKIHHHHHHMLQLTQVRIWVITFKSYLRMNKNMIKGMIVFATIAEKGSMSAAAQQLNLSSSAVSQQVTKLEMDMGISLFHRNTRNLTLTEAGSLFYENCRKVISIVDSTEQKLNNLKGIPSGELKIAAPVGFGGGLLSEPFQYLLATHPQISLNLVMQDGPIDIVNDGIDLAICIGPLSDSNLIARHLADWRMLLCTSPDYLPMHHNIKHPSELAAFNRINHNYTKGELLTHHPSLECFELTGQRISVNNMQTLIQLTLDGLGYAALPEPEVLDYLDKGVLVPLLPEWSFNTYSVYSVTSARDRQPAKVKEALNALSQYFSQTDFNHADQLKGGSYQTEHIKSGKEHRLGT”, the “soluble on expression in E. coli” value is reported as “not soluble”. With “MQNETINLKQHLAAIKEYWQPEIINRHGFQFHLVKLLGDYGWHTHGYSDKVLFAVEGDMAVDFADGGSMTIREGEMAVVPKSVSHRPRSENGCSLVLIELSDPSEAV” the “soluble on expression in E. coli” value was “soluble”. In the case of “MRAHTLSRQLREGNLFAEQCPSREVLKHVTSRWGVLILVALRDGTHRFSDLRRKMGGVSEKMLAQSLQALEQDGFLNRVSYPVVPPHVEYSLTPLGEQVSDKVAALADWIELNLPQVLAQRERLSDGG”, the “soluble on expression in E. coli” value is reported as “soluble”. In the case of “EELEERLVEWIVVQCGPDVGRPDRGRLGFQVWLKNGVILSKLVNSLYPEGSKPVKVPENPPSMVFKQMEQVAQFLKAAEDYGVIKTDMFQTVDLYEGKDMAAVQRTLMALGSLAVTKNDGNYRGDPNWFMK”, the “soluble on expression in E. coli” value is reported as “soluble”. In the case of “MLHKEKPDYNRNQYGFYTLDQLVPDEHFLRQVEAVIDFDFIYDLVEDTYSSDNGRPSLDPVMLVKIPLIQCFYGIRSMRQTIKDIEVNTAYRWFLGLTLDDKVPHFTTYGKNYSRRFQEKGLIESIFTHIVGLCINTGLIDPTEIFIDGTHIKAAANNRKFINREVEKQAKFMSEQLEIEINRDREKHGKKPLGPAKELEPVAKKISTTDPESGWFHKGDHKEVFAYSAQVACDKYGWALAYSVEAGNIHDSQAFPALFAKLEPLKPQFIIADSGYNVPSIAKFLIDKEITPVLPYTRPRGKKDLLRPKELIYDEHFDCVICPEHQALTYRTTTREGYREYKSDPVICANCPLLSVCTTSKNYQKVVTRHIWKDYLAQPRNTTISAIRERKASPKWKIRLD”, the “soluble on expression in E. coli” value is reported as “not soluble”. For “MKLLKVAAIAAIVFSGSALAGVVPQYGGGGGNHGGGGNNSGPNSELNIYQYGGGNSALALQADARNSDLTITQHGGGNGADVGQGSDDSSIDLTQRGFGNSATLDQWNGKDSHMTVKQFGGGNGAAVDQTASNSTVNVTQVGFGNNATAHQY”, the “soluble on expression in E. coli” value was “not soluble”. In the case of “HITHKLLIPAWDGIVLEGLSVKERKTTNNTVVLALIGHFQTEHHYLNTSFHEFQELFGTELVLINHRNYSNRSNKFANSAEEIARDVLAFAKHFRQKNKKIVLYGMCGGAAHMILAA”, the “soluble on expression in E. coli” value is reported as “not soluble”. For “MGSDKIHHHHHHMFSMTKDWREQRILDSSEFTHADWLQAAQRIVILGRLNEDELTRLFELATLFLADKSITGAQGFEITDAVKQSIALQACLPILNLSLEWYAGWSAIIIYPGSYKSETTTVDELGIVHEGSQHRSGEAWLRGPVILSWKDAKHSGERDGHNVVIHEFVHKLDMLNGRANGFPPLQPDMDPVRWTEIMTRDFEDFQSHHKSGFDRYGATNPAEFFAVLSEVFFETPQKLIDAYPDIYEIMVKFFRQTPLEPRP”, the “soluble on expression in E. coli” value was “not soluble”. With “MAHHHHHHMLTIRVGNLPVCLCSNLRNTFNPTYAFGVKRNDGTVALLDGKSGHLLLPFDAEGNIIVTPGADYQLVFLSNDSTSSTVHTTQGLGKGGTNKTSHDFELTKALAKDGSIHREKRRLDDGRATSRERFHKGNAHYSVSDSKPTKRRKRDHSVDKDAVVEAEFGSQSINKKERSVKASRKDSNREDSDDPDDIPIFCTLAGKPTPAPISSNHTPTVSPAPKEVYLVDNFDPTTRPAHSEEGALDSSATELISS” the “soluble on expression in E. coli” value was “soluble”. For “MAGFISNFFGVGDSDSQYEEPTEASQAAAPTESATNTRSTPKVVPMQGGKSVNSKIALFEPKIYSDVKEIATQLLKNQAVIINFDHVDDEMARRIVDFLTGTVFAINGEIERIGDEIFLCIPENYEVSGSTTSQFDTSKLLEHHHHHH”, the “soluble on expression in E. coli” value was “not soluble”. With “MGSDKIHHHHHHMEEKLSDVKVSGSGSIGGGNYDEVKISGSAKINGNVNCNSYMCSGSSTANGNITAKEIVKISGTTKVHGDLNSGDLIVSGSSRTFGNVTAKKIKISGSSDIEGNVHTDSIDISGSVSIGEDCEAEHFHARGGFEIAGLLNAGDIEIYMYGKCRVKDIGGENITVKLGSGHFIHEMMNLFFTRGRLVTSIIEGDNIYLEHTDAKIVRGNNITIGPNCNIENIEYKNQLNMDQSCKALCKKVDE” the “soluble on expression in E. coli” value was “not soluble”. For “MGSSHHHHHHSSGLVPRGSHMEEDGGIIRRIQTRGEGYAKPNEGAIVEVALEGYYKDKLFDQRELRFEIGEGENLDLPYGLERAIQRMEKGEHSIVYLKPSYAFGSVGKEKFQIPPNAELKYELHLKSFEKAKESWEMNSEEKLEQSTIVKERGTVYFKEGKYKQALLQYKKIVSWLEYESSFSNEEAQKAQALRLASHLNLAMCHLKLQAFSAAIESCNKALELDSNNEKGLSRRGEAHLAVNDFELARADFQKVLQLYPNNKAAKTQLAVCQQRIRRQLAREKKLYANMFERLAEEENKAKAEASSGDHPTDTEMKEEQKSNTAGSQSQVETEA”, the “soluble on expression in E. coli” value was “soluble”. For “STFVAKDGTQIYFKDWGSGKPVLFSHGWLLDADMWEYQMEYLSSRGYRTIAFDRRGFGRSDQPWTGNDYDTFADDIAQLIEHLDLKEVTLVGFSMGGGDVARYIARHGSARVAGLVLLGAVTPLFGQKPDYPQGVPLDVFARFKTELLKDRAQFISDFNAPFYGINKGQVVSQGVQTQTLQIALLASLKATVDCVTAFAETDFRPDMAKIDVPTLVIHGDGDQIVPFETTGKVAAELIKGAELKVYKDAPHGFAVTHAQQLNEDLLAFLKRGSHHHHHH”, the “soluble on expression in E. coli” value was “soluble”. In the case of “MESKRNKPGKATGKGKPVGDKWLDDAGKDSGAPIPDRIADKLRDKEFKSFDDFRKAVWEEVSKDPELSKNLNPSAKSSVSKGYSPFTPKNQQVGGRKVYELHHDKPISQGGEVYDMDNIRVTTPKRHIDIHRGK”, the “soluble on expression in E. coli” value is reported as “soluble”. In the case of “MSLTFSILARDPNNGRFGVAVATCHLAVGSTVPHIRSGVGAVATQAHTNPYLGICGLERLEHHADAQDVLNSLLLDDPQRDWRQFHLIDLDGRTACWTGVECGGWAGHRHHPNLSVAGNCLAGEVVLEAMEQTFLTSDPNWKLGRRLMTALQAGEQAGGDQRASSCTSAALQVSGEAAFPLLDLRVDFRSGAVEELMELYERSQDRWAQQWRDELLELPMLNRLVAEGHHHHHH”, the “soluble on expression in E. coli” value is reported as “soluble”.
